Results from patent US20170298109A1 (SAPPORO MEDICAL UNIVERSITY, published 2017).

Target: T1, HLA-A*02:01 with β2-microglobulin (human)
T1 construct: Soluble recombinant HLA used in the folding test and in tetramer reagents; also called HLA-A2
Assay: folding test: HLA-monomer formation from HLA, β2-microglobulin and peptide, gel filtration

binding result | Binder
no binding (tested: 30 µM peptide) | MAATEISVL (synthetic 9-mer) [MAA peptide]

Target: HLA-A*24:02 with β2-microglobulin (human)
Assay: HLA tetramer reagent made of the RMM peptide and the HLA type, staining of induced CTLs, flow cytometry

binding result | Binder
binds | RMMLVSAWL (synthetic 9-mer) [RMM peptide]

Target: T1, HLA-A*02:01 with β2-microglobulin
Assay: as above

binding result | Binder
binds | RMMLVSAWL (synthetic 9-mer) [RMM peptide]

Target: T1, HLA-A*02:01 with β2-microglobulin
Assay: folding test: HLA-monomer formation, gel filtration

Binder | binding result
SLAETAGLI (synthetic 9-mer) [SLAE peptide] | binds
HALEENVMV (synthetic 9-mer) [HAL peptide] | binds
ALEENVMVA (synthetic 9-mer) [ALE peptide] | binds
YASRDTYKL (synthetic 9-mer) [YAS peptide] | binds
VLEEEVELV (synthetic 9-mer) [VLE peptide] | binds
VLTVSNSNV (synthetic 9-mer) [VLT peptide] | binds
SVLEEEVEL (synthetic 9-mer) [SVLE peptide] | binds

The remaining lines, values ahead:

binding result | Binder
binds | VLSEQFTKI (synthetic 9-mer) [VLS peptide]
binds | ILQKHGENV (synthetic 9-mer) [ILQ peptide]
binds | KLAVSLAET (synthetic 9-mer) [KLA peptide]

Target: T2, HLA-A*11:01 with β2-microglobulin (human)
T2 construct: Soluble recombinant HLA used in the folding test and in tetramer reagents
Assay: folding test: HLA-monomer formation after 1, 3 and 7 days, gel filtration

Binder | binding result
KQLLNAHFRK (synthetic 10-mer) [KQL peptide] | binds
KLLFIGTIK (synthetic 9-mer) [KLLF peptide] | binds
TVYKCSKCGK (synthetic 10-mer) [TVY peptide] | binds
SVLSEQFTK (synthetic 9-mer) [SVL peptide] | binds
AAAEEASTTK (synthetic 10-mer) [AAA peptide] | binds
CSYASRDTYK (synthetic 10-mer) [CSY peptide] | binds
ASGKGRRTRK (synthetic 10-mer) [ASG peptide] | binds
GLIPTVLTLK (synthetic 10-mer) [GLI peptide] | binds

Now from value to binder:

binding result | Binder
binds | GTMKIHILQK (synthetic 10-mer) [GTM peptide]
binds | TVLTLKASFK (synthetic 10-mer) [TVL peptide]
binds | RMSSFNRHMK (synthetic 10-mer) [RMS peptide]
binds | NTHTGTRPYK (synthetic 10-mer) [NTH peptide]
